# Biological target: human cancer-specific MUC1 peptide (PTL 1) (human)
# Assay: ELISA on immobilised human cancer-specific MUC1 peptide, 4-parameter fit, duplicate (Example 6-2)
# Settings: not given
row,EC50,Molecule
1,0.08 nM,"[Gd/DOTA-NH-CH2-(1,4-Ph)-NH-C(═O)-Met-Ile-NH-(CH2)2-Z1(#N)]p-Fab^5 (Fab, V domains shown, labeling may sit on this chain; sites not stated; labeling portion (MW 1074) on amino groups of the Fab, sites and chain not stated; 1-2 per Fab by MS; Gln 1 pyroglutamic acid as Fab^5 is defined in paragraph 370) VH: QVQLVQSGAEVKKPGASVKVSCKASGYTFTNYGLSWVRQAPGQGLEWMGENHPGSGIIYHNEKFRGRVTLTADRSTSTAYMELSSLRSEDTAVYYCARSSGTRGFDYWGQGTLVTVSS VL: DVVMTQTPLSLSVTPGQPASISCRSSQSIVHSNGNTYLEWYLQKPGQSPQLLIYRVSNRFSGVPDRFSGSGSGTDFTLKISRVEAEDVGVYYCFQGSHGPWTFGQGTKLEIKR"
2,0.11 nM,"Ex-No 105, conjugate of Fab^5 (structure given only as drawing CHEM-US-00163) (Fab, V domains shown, labeling may sit on this chain; sites not stated; low molecular weight molecule (MW 1190) bound to the Fab, sites and chain not stated; 1-3 per Fab by MS; Gln 1 pyroglutamic acid as Fab^5 is defined in paragraph 370) VH: QVQLVQSGAEVKKPGASVKVSCKASGYTFTNYGLSWVRQAPGQGLEWMGENHPGSGIIYHNEKFRGRVTLTADRSTSTAYMELSSLRSEDTAVYYCARSSGTRGFDYWGQGTLVTVSS VL: DVVMTQTPLSLSVTPGQPASISCRSSQSIVHSNGNTYLEWYLQKPGQSPQLLIYRVSNRFSGVPDRFSGSGSGTDFTLKISRVEAEDVGVYYCFQGSHGPWTFGQGTKLEIKR"
3,0.08 nM,"Ex-No 103, conjugate of Fab^5 (structure given only as drawing CHEM-US-00162) (Fab, V domains shown, labeling may sit on this chain; sites not stated; low molecular weight molecule (MW 1115) bound to the Fab, sites and chain not stated; 1-2 per Fab by MS; Gln 1 pyroglutamic acid as Fab^5 is defined in paragraph 370) VH: QVQLVQSGAEVKKPGASVKVSCKASGYTFTNYGLSWVRQAPGQGLEWMGENHPGSGIIYHNEKFRGRVTLTADRSTSTAYMELSSLRSEDTAVYYCARSSGTRGFDYWGQGTLVTVSS VL: DVVMTQTPLSLSVTPGQPASISCRSSQSIVHSNGNTYLEWYLQKPGQSPQLLIYRVSNRFSGVPDRFSGSGSGTDFTLKISRVEAEDVGVYYCFQGSHGPWTFGQGTKLEIKR"
4,0.07 nM,"Ex-No 102, conjugate of Fab^5 (structure given only as drawing CHEM-US-00161) (Fab, V domains shown, labeling may sit on this chain; sites not stated; low molecular weight molecule (MW 1278) bound to the Fab, sites and chain not stated; 1-2 per Fab by MS; Gln 1 pyroglutamic acid as Fab^5 is defined in paragraph 370) VH: QVQLVQSGAEVKKPGASVKVSCKASGYTFTNYGLSWVRQAPGQGLEWMGENHPGSGIIYHNEKFRGRVTLTADRSTSTAYMELSSLRSEDTAVYYCARSSGTRGFDYWGQGTLVTVSS VL: DVVMTQTPLSLSVTPGQPASISCRSSQSIVHSNGNTYLEWYLQKPGQSPQLLIYRVSNRFSGVPDRFSGSGSGTDFTLKISRVEAEDVGVYYCFQGSHGPWTFGQGTKLEIKR"

# System: not given
# Assay: not given
# Settings: mouse, in vivo
Molecule,% of dose/tissue (amount of Gd contained per kidney),Proportion of decrease (amount of Gd contained in the kidneys)
"[Gd/DOTA-NH—CH2-(1,3-Ph)-C(═O)-Asp-Gly-Lys*-Z2(#N)]p-Fab^2 (conjugate) heavy: EVQLVESGGGLVQPGGSLRLSCAASGFNIRDTYMHWVRQAPGKGLEWVARIDPANGNSRYVPKFQGRFTISADTSRNTAYLQMNSLRAEDTAVYYCAPFGYYVSDYAMAYWGQGTLVTVSSASTKGPSVFPLAPSSKSTSGGTAALGCLVKDYFPEPVTVSWNSGALTSGVHTFPAVLQSSGLYSLSSVVTVPSSSLGTQTYICNVNHKPSNTKVDKKVEPKSCD light: DIQLTQSPSSLSASVGDRVTITCRAGESVDIFGVGFLHWYQQKPGKAPKLLIYRASNLESGIPSRFSGSGSRTDFTLTISSLQPEDFATYYCQQTNEDPYTFGQGTKVEIKRTVAAPSVFIFPPSDEQLKSGTASVVCLLNNFYPREAKVQWKVDNALQSGNSQESVTEQDSKDSTYSLSSTLTLSKADYEKHKVYACEVTHQGLSSPVTKSFNRGEC",14.8 % of dose/tissue,52.2%
"[Gd/DOTA-NH—(CH2CH2O)3—CH2—C(═O)—NH—CH2-(1,3-Ph)-C(═O)-Gly-Lys*-Z2(#N)]p-Fab^2 (conjugate) heavy: EVQLVESGGGLVQPGGSLRLSCAASGFNIRDTYMHWVRQAPGKGLEWVARIDPANGNSRYVPKFQGRFTISADTSRNTAYLQMNSLRAEDTAVYYCAPFGYYVSDYAMAYWGQGTLVTVSSASTKGPSVFPLAPSSKSTSGGTAALGCLVKDYFPEPVTVSWNSGALTSGVHTFPAVLQSSGLYSLSSVVTVPSSSLGTQTYICNVNHKPSNTKVDKKVEPKSCD light: DIQLTQSPSSLSASVGDRVTITCRAGESVDIFGVGFLHWYQQKPGKAPKLLIYRASNLESGIPSRFSGSGSRTDFTLTISSLQPEDFATYYCQQTNEDPYTFGQGTKVEIKRTVAAPSVFIFPPSDEQLKSGTASVVCLLNNFYPREAKVQWKVDNALQSGNSQESVTEQDSKDSTYSLSSTLTLSKADYEKHKVYACEVTHQGLSSPVTKSFNRGEC",17.1 % of dose/tissue,44.8%
"[Gd/DOTA-NH—CH2-(1,3-Ph)-C(═O)-Met-Gly-Lys*-Z2(#N)]p-Fab^2 (conjugate) heavy: EVQLVESGGGLVQPGGSLRLSCAASGFNIRDTYMHWVRQAPGKGLEWVARIDPANGNSRYVPKFQGRFTISADTSRNTAYLQMNSLRAEDTAVYYCAPFGYYVSDYAMAYWGQGTLVTVSSASTKGPSVFPLAPSSKSTSGGTAALGCLVKDYFPEPVTVSWNSGALTSGVHTFPAVLQSSGLYSLSSVVTVPSSSLGTQTYICNVNHKPSNTKVDKKVEPKSCD light: DIQLTQSPSSLSASVGDRVTITCRAGESVDIFGVGFLHWYQQKPGKAPKLLIYRASNLESGIPSRFSGSGSRTDFTLTISSLQPEDFATYYCQQTNEDPYTFGQGTKVEIKRTVAAPSVFIFPPSDEQLKSGTASVVCLLNNFYPREAKVQWKVDNALQSGNSQESVTEQDSKDSTYSLSSTLTLSKADYEKHKVYACEVTHQGLSSPVTKSFNRGEC",15.4 % of dose/tissue,50.3%
